According to article PMC6353875 (2019):

Biological target: EZH2 SRM-SANT1 (residues 141–251) (human, UniProt Q15910 141-251)
Experiment: NMR

EZH2 SRM-SANT1 (residues 141–251), sequence (Q15910 141-251): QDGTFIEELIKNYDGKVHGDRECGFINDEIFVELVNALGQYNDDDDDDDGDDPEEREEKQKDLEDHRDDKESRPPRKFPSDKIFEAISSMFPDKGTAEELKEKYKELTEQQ

In the case of PEPAKSAPAPK [unmodified histone H2B peptide (residues 1–11)], the Kd is reported as > 5 mM.
